As usually defined, the Kd is the free concentration of one partner at which half of the binding sites on the other are occupied at equilibrium, for simple one-to-one binding.

This is an account of results in patent US20230021388A1 (VELOSBIO, published 2023).

This test deals with T1, recombinant human ROR1 extracellular domain (human, UniProt Q01973 30-406).
T1 construct: biotinylated for the filter lifts; also called huROR1-ECD; human ROR1-ECD
The test is described as follows: ELISA, soluble Fab on coated huROR1-ECD. The protocol: The previously described filter lift assay provides a visual, qualitative assessment of antigen binding (Example 1). In order to assess the ROR1 binding activity of Ab1 Fab in a more quantitative fashion, an ELISA assay was developed. A 96-well Costar-3366 plate was coated with 50 μL/well of 1 μg/mL human ROR1-ECD (ACROBiosystems, cat. #RO1-H522y) in PBS overnight at 4° C. The plate was rinsed once with PBS-T and blocked with 100 μL/well of 5% M-P for 1 h at 25° C. Fab samples were serially diluted 3-fold using 5% M-P and 50 μL/well was incubated for 1 h at 25° C. The plate was washed three times with PBS-T and 50 μL/well anti-human kappa, and HRP conjugate (Southern Biotech, cat. #2060-05) diluted 10,000-fold in 5% M-P was added for 1 h at 25° C. In certain assays (extended wash format), the plate was placed in large volumes (up to 1 L) of PBS-T and incubated, with mixing, for 2-5 h prior to the addition of anti-human kappa, HRP conjugate. The plate was washed three times with PBS-T, and developed with 50 μL/well 1-Step Ultra TMB-ELISA (Thermo Scientific, cat. #34028). The reaction was terminated by the addition of 2 N H2504 and the A450 was determined using a Spectramax plate reader.
A general note: In an ELISA, binding on a coated surface is turned into a signal by an enzyme label.

T1 sequence (Q01973 30-406 limits assumed): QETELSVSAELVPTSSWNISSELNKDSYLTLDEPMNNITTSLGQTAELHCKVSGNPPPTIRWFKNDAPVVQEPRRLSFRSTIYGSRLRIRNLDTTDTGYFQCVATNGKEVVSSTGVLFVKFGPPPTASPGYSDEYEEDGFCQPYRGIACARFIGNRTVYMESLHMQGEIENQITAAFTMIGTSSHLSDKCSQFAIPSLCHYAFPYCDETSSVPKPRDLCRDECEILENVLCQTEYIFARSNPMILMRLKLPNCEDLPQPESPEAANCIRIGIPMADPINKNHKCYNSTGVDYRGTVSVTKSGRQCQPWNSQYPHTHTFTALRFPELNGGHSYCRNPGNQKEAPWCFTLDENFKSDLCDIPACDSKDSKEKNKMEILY

B1: Ab1 Fab variant L1 S30A (Fab, V domains shown)
VH: QVQLQESGPGLVKPSQTLSLTCTVSGYAFTAYNIHWVRQAPGQGLEWMGSFDPYDGGSSYNQKFKDRLTISKDTSKNQVVLTMTNMDPVDTATYYCARGWYYFDYWGHGTLVTVSS
VL: DIVMTQTPLSLPVTPGEPASISCRASKAISKYLAWYQQKPGQAPRLLIYSGSTLQSGIPPRFSGSGYGTDFTLTINNIESEDAAYYFCQQHDESPYTFGEGTKVEIK
notes: Fab
Regarding B1, the Kd was determined as 1.5 nM.

B2: Ab1 Fab variant H1 I41V (Fab, V domains shown)
VH: QVQLQESGPGLVKPSQTLSLTCTVSGYAFTAYNVHWVRQAPGQGLEWMGSFDPYDGGSSYNQKFKDRLTISKDTSKNQVVLTMTNMDPVDTATYYCARGWYYFDYWGHGTLVTVSS
VL: DIVMTQTPLSLPVTPGEPASISCRASKSISKYLAWYQQKPGQAPRLLIYSGSTLQSGIPPRFSGSGYGTDFTLTINNIESEDAAYYFCQQHDESPYTFGEGTKVEIK
As for B2, the Kd was determined as 3.5 nM.

B3: Ab1 Fab variant H1 N40R (Fab, V domains shown)
VH: QVQLQESGPGLVKPSQTLSLTCTVSGYAFTAYRIHWVRQAPGQGLEWMGSFDPYDGGSSYNQKFKDRLTISKDTSKNQVVLTMTNMDPVDTATYYCARGWYYFDYWGHGTLVTVSS
VL: DIVMTQTPLSLPVTPGEPASISCRASKSISKYLAWYQQKPGQAPRLLIYSGSTLQSGIPPRFSGSGYGTDFTLTINNIESEDAAYYFCQQHDESPYTFGEGTKVEIK
B3: the dissociation constant (Kd) came out at 43 nM.

B4: Ab1 Fab variant L2 Q71V (Fab, V domains shown)
VH: QVQLQESGPGLVKPSQTLSLTCTVSGYAFTAYNIHWVRQAPGQGLEWMGSFDPYDGGSSYNQKFKDRLTISKDTSKNQVVLTMTNMDPVDTATYYCARGWYYFDYWGHGTLVTVSS
VL: DIVMTQTPLSLPVTPGEPASISCRASKSISKYLAWYQQKPGQAPRLLIYSGSTLVSGIPPRFSGSGYGTDFTLTINNIESEDAAYYFCQQHDESPYTFGEGTKVEIK
notes: Fab; also called SGSTLVS
On to B4, for which the Kd was 1.3 nM.

B5: Ab1 Fab variant L1 S30F (Fab, V domains shown)
VH: QVQLQESGPGLVKPSQTLSLTCTVSGYAFTAYNIHWVRQAPGQGLEWMGSFDPYDGGSSYNQKFKDRLTISKDTSKNQVVLTMTNMDPVDTATYYCARGWYYFDYWGHGTLVTVSS
VL: DIVMTQTPLSLPVTPGEPASISCRASKFISKYLAWYQQKPGQAPRLLIYSGSTLQSGIPPRFSGSGYGTDFTLTINNIESEDAAYYFCQQHDESPYTFGEGTKVEIK
notes: Fab
On to B5, for which the Kd stood at 18 nM.

B6: Ab1 Fab variant L2 L70H (Fab, V domains shown)
VH: QVQLQESGPGLVKPSQTLSLTCTVSGYAFTAYNIHWVRQAPGQGLEWMGSFDPYDGGSSYNQKFKDRLTISKDTSKNQVVLTMTNMDPVDTATYYCARGWYYFDYWGHGTLVTVSS
VL: DIVMTQTPLSLPVTPGEPASISCRASKSISKYLAWYQQKPGQAPRLLIYSGSTHQSGIPPRFSGSGYGTDFTLTINNIESEDAAYYFCQQHDESPYTFGEGTKVEIK
notes: Fab; also called SGSTHQS
B6: the dissociation constant Kd worked out at 2.3 nM.

B7: Ab1 Fab variant L1 S32A (Fab, V domains shown)
VH: QVQLQESGPGLVKPSQTLSLTCTVSGYAFTAYNIHWVRQAPGQGLEWMGSFDPYDGGSSYNQKFKDRLTISKDTSKNQVVLTMTNMDPVDTATYYCARGWYYFDYWGHGTLVTVSS
VL: DIVMTQTPLSLPVTPGEPASISCRASKSIAKYLAWYQQKPGQAPRLLIYSGSTLQSGIPPRFSGSGYGTDFTLTINNIESEDAAYYFCQQHDESPYTFGEGTKVEIK
notes: Fab
Regarding B7, the Kd came out at 1.1 nM.

B8: Ab1 Fab variant L1 S30P (Fab, V domains shown)
VH: QVQLQESGPGLVKPSQTLSLTCTVSGYAFTAYNIHWVRQAPGQGLEWMGSFDPYDGGSSYNQKFKDRLTISKDTSKNQVVLTMTNMDPVDTATYYCARGWYYFDYWGHGTLVTVSS
VL: DIVMTQTPLSLPVTPGEPASISCRASKPISKYLAWYQQKPGQAPRLLIYSGSTLQSGIPPRFSGSGYGTDFTLTINNIESEDAAYYFCQQHDESPYTFGEGTKVEIK
notes: Fab
Consider B8, for which the equilibrium dissociation constant (Kd) was determined as 16 nM.

B9: Ab1 Fab variant L2 S68G (Fab, V domains shown)
VH: QVQLQESGPGLVKPSQTLSLTCTVSGYAFTAYNIHWVRQAPGQGLEWMGSFDPYDGGSSYNQKFKDRLTISKDTSKNQVVLTMTNMDPVDTATYYCARGWYYFDYWGHGTLVTVSS
VL: DIVMTQTPLSLPVTPGEPASISCRASKSISKYLAWYQQKPGQAPRLLIYSGGTLQSGIPPRFSGSGYGTDFTLTINNIESEDAAYYFCQQHDESPYTFGEGTKVEIK
notes: Fab; also called SGGTLQS
With B9, the Kd is 1.6 nM.

B10: Ab1 Fab variant L2 T69H (Fab, V domains shown)
VH: QVQLQESGPGLVKPSQTLSLTCTVSGYAFTAYNIHWVRQAPGQGLEWMGSFDPYDGGSSYNQKFKDRLTISKDTSKNQVVLTMTNMDPVDTATYYCARGWYYFDYWGHGTLVTVSS
VL: DIVMTQTPLSLPVTPGEPASISCRASKSISKYLAWYQQKPGQAPRLLIYSGSHLQSGIPPRFSGSGYGTDFTLTINNIESEDAAYYFCQQHDESPYTFGEGTKVEIK
notes: Fab; also called SGSHLQS
Turning to B10, the Kd came to 1.5 nM.

B11: Ab1 Fab variant L2 T69R (Fab, V domains shown)
VH: QVQLQESGPGLVKPSQTLSLTCTVSGYAFTAYNIHWVRQAPGQGLEWMGSFDPYDGGSSYNQKFKDRLTISKDTSKNQVVLTMTNMDPVDTATYYCARGWYYFDYWGHGTLVTVSS
VL: DIVMTQTPLSLPVTPGEPASISCRASKSISKYLAWYQQKPGQAPRLLIYSGSRLQSGIPPRFSGSGYGTDFTLTINNIESEDAAYYFCQQHDESPYTFGEGTKVEIK
notes: Fab; also called SGSRLQS
With B11, the Kd amounted to 2.1 nM.

B12: Ab1 Fab variant L1 S32I (Fab, V domains shown)
VH: QVQLQESGPGLVKPSQTLSLTCTVSGYAFTAYNIHWVRQAPGQGLEWMGSFDPYDGGSSYNQKFKDRLTISKDTSKNQVVLTMTNMDPVDTATYYCARGWYYFDYWGHGTLVTVSS
VL: DIVMTQTPLSLPVTPGEPASISCRASKSIIKYLAWYQQKPGQAPRLLIYSGSTLQSGIPPRFSGSGYGTDFTLTINNIESEDAAYYFCQQHDESPYTFGEGTKVEIK
notes: Fab
Turning to B12, the dissociation constant Kd was 1.9 nM.

B13: Ab1 Fab variant L1 S30H (Fab, V domains shown)
VH: QVQLQESGPGLVKPSQTLSLTCTVSGYAFTAYNIHWVRQAPGQGLEWMGSFDPYDGGSSYNQKFKDRLTISKDTSKNQVVLTMTNMDPVDTATYYCARGWYYFDYWGHGTLVTVSS
VL: DIVMTQTPLSLPVTPGEPASISCRASKHISKYLAWYQQKPGQAPRLLIYSGSTLQSGIPPRFSGSGYGTDFTLTINNIESEDAAYYFCQQHDESPYTFGEGTKVEIK
notes: Fab
Take B13: the Kd was found to be 1.4 nM.

B14: Ab1 Fab variant L2 L70K (Fab, V domains shown)
VH: QVQLQESGPGLVKPSQTLSLTCTVSGYAFTAYNIHWVRQAPGQGLEWMGSFDPYDGGSSYNQKFKDRLTISKDTSKNQVVLTMTNMDPVDTATYYCARGWYYFDYWGHGTLVTVSS
VL: DIVMTQTPLSLPVTPGEPASISCRASKSISKYLAWYQQKPGQAPRLLIYSGSTKQSGIPPRFSGSGYGTDFTLTINNIESEDAAYYFCQQHDESPYTFGEGTKVEIK
notes: Fab; also called SGSTKQS
Turning to B14, the Kd is 1.5 nM.

B15: Ab1 Fab variant L2 S68R (Fab, V domains shown)
VH: QVQLQESGPGLVKPSQTLSLTCTVSGYAFTAYNIHWVRQAPGQGLEWMGSFDPYDGGSSYNQKFKDRLTISKDTSKNQVVLTMTNMDPVDTATYYCARGWYYFDYWGHGTLVTVSS
VL: DIVMTQTPLSLPVTPGEPASISCRASKSISKYLAWYQQKPGQAPRLLIYSGRTLQSGIPPRFSGSGYGTDFTLTINNIESEDAAYYFCQQHDESPYTFGEGTKVEIK
notes: Fab; also called SGRTLQS
For B15, the Kd was found to be 11 nM.

B16: Ab1 Fab variant L2 Q71T (Fab, V domains shown)
VH: QVQLQESGPGLVKPSQTLSLTCTVSGYAFTAYNIHWVRQAPGQGLEWMGSFDPYDGGSSYNQKFKDRLTISKDTSKNQVVLTMTNMDPVDTATYYCARGWYYFDYWGHGTLVTVSS
VL: DIVMTQTPLSLPVTPGEPASISCRASKSISKYLAWYQQKPGQAPRLLIYSGSTLTSGIPPRFSGSGYGTDFTLTINNIESEDAAYYFCQQHDESPYTFGEGTKVEIK
notes: Fab; also called SGSTLTS
For B16, the Kd worked out at 1.1 nM.
